The experiment has as its target cynomolgus PD-1 (cynomolgus). Nature of the experiment: kinetic analysis (bio-light interferometry).

The text below walks through data of patent US20190256608A1 (GlaxoSmithKline, published 2019).

B1: Pembrolizumab (antibody, human IgG4 S228P, kappa, V domains shown)
VH: QVQLVQSGVEVKKPGASVKVSCKASGYTFTNYYMYWVRQAPGQGLEWMGGINPSNGGTNFNEKFKNRVTLTTDSSTTTAYMELKSLQFDDTAVYYCARRDYRFDMGFDYWGQGTTVTVSS
VL: EIVLTQSPATLSLSPGERATLSCRASKGVSTSGYSYLHWYQQKPGQAPRLLIYLASYLESGVPARFSGSGSGTDFTLTISSLEPEDFAVYYCQHSRDLPLTFGGGTKVEIKR
notes: also called MK3475
In turn, B1 gave a Kd of 0.118 nM.
